The supplement of paper PMC6757056
± gives the standard deviation of the averaged measurements.

B1: library; a variant is named by its letters at N, in order (parent)
chain: GCUGUCACCGGUGUAUUACCCUAGUGGUCGACCGGUCUGAUGAGUCUNNNNNNAGACGAAACAGC

What was measured:
[1] = variants of: B1; test: normalized RNA/DNA level with ligand (relative to sTRSVctl = 100) (log10 (% of sTRSVctl)); ligand: hypoxanthine (xanthine aptamer); higher = less ribozyme self-cleavage, higher mRNA level; details: ligand concentration (+) RNA-Seq: 5 mM, HEK293T, reporter: mCherry (pCS4076), ligand present: yes
Method in brief: (§1)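 Ribozyme switch library plasmids with mCherry reporters (eGFP in certain ligand experiments) went into HEK293T cells at 4 µg per 6-well well. Where ligand was used, it was applied 1 h before transfection, and total RNA was extracted with EDTA 72 h later for reverse transcription, amplification, barcoding and sequencing. RNA level is the RNA-to-DNA read ratio normalized to a spiked-in non-cleaving sequence or to the leading sequences, then scaled and log-transformed. Scaling was ×100 with log10, the leading set comprised 25 sequences, and the cutoff was ≥100 DNA reads.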

[2] = variants of: B1; test: normalized RNA/DNA level without ligand (relative to sTRSVctl = 100) (log10 (% of sTRSVctl)); ligand: hypoxanthine (xanthine aptamer); higher = less ribozyme self-cleavage, higher mRNA level; details: HEK293T, reporter: mCherry (pCS4076), ligand present: no
Method in brief: as §1

Variant	normalized RNA/DNA level with ligand (log10) [1]	normalized RNA/DNA level without ligand (log10) [2]
CCGCGC	1.963 ± 0.0058	1.7 ± 0.06
CCGCGU	1.97 ± 0.023	1.71 ± 0.064
CCGCGA	1.88 ± 0.018	1.62 ± 0.016
GCUGAC	1.9 ± 0.034	1.63 ± 0.034
GCUGAG	1.85 ± 0.083	1.347 ± 0.012
UCUAGU	1.99 ± 0.051	1.68 ± 0.019
UCUAGG	1.96 ± 0.072	1.92 ± 0.089
UCUAUA	1.893 ± 0.016	1.858 ± 0.013
UCUAUU	1.93 ± 0.057	1.86 ± 0.023
GCUCAC	1.94 ± 0.08	1.84 ± 0.053
GCUCAG	1.86 ± 0.019	1.31 ± 0.057
GCUCAU	1.95 ± 0.026	1.801 ± 0.018
GCGAGC	1.81 ± 0.034	1.37 ± 0.079
GCUCCU	2.027 ± 0.006	1.981 ± 0.015
GCUCCG	1.88 ± 0.12	1.38 ± 0.075
GCUCCA	1.936 ± 0.018	1.81 ± 0.025
GCUCCC	1.93 ± 0.043	1.84 ± 0.02
CCGGAU	1.9742 ± 0.0018	1.777 ± 0.012
ACGUAU	1.86 ± 0.057	1.39 ± 0.053
ACGUAC	1.9 ± 0.041	1.55 ± 0.036
CCGAUC	1.99 ± 0.037	1.87 ± 0.056
CCGAUA	1.92 ± 0.049	1.72 ± 0.059
CCGAUG	1.82 ± 0.064	1.42 ± 0.049
UCGCAC	1.97 ± 0.069	1.827 ± 0.014

Variant	normalized RNA/DNA level with ligand (log10) [1]	normalized RNA/DNA level without ligand (log10) [2]
UCGCAU	1.87 ± 0.022	1.68 ± 0.018
UCGCGA	1.89 ± 0.03	1.69 ± 0.071
UCGCGG	1.93 ± 0.1	1.78 ± 0.037
UCGCGC	2.01 ± 0.035	1.8 ± 0.024
ACUACC	2 ± 0.03	1.9024 ± 0.00086
ACUACA	1.92 ± 0.0088	1.841 ± 0.014
UCGAGC	1.97 ± 0.029	1.6 ± 0.1
UCGAGG	1.89 ± 0.036	1.59 ± 0.056
GCGGCC	2 ± 0.046	1.76 ± 0.076
GCGGCU	1.971 ± 0.0061	1.84 ± 0.04
GCGGCA	1.94 ± 0.055	1.7 ± 0.052
CCGCCG	1.956 ± 0.016	1.66 ± 0.037
CCGCCA	1.97 ± 0.045	1.94 ± 0.053
CCGCCC	2.025 ± 0.013	1.99 ± 0.044
CCGCCU	1.94 ± 0.025	1.95 ± 0.051
GCGUGC	1.949 ± 0.016	1.619 ± 0.006
ACGUGC	1.81 ± 0.023	1.515 ± 0.0062
UCGAUU	1.912 ± 0.013	1.55 ± 0.12
UCGAUG	1.922 ± 0.011	1.62 ± 0.033
UCGAUA	1.91 ± 0.026	1.57 ± 0.032
ACGAUC	1.963 ± 0.0088	1.89 ± 0.013
ACGAUU	1.837 ± 0.0076	1.32 ± 0.019
ACGUUU	1.84 ± 0.022	1.53 ± 0.035
ACGUUA	1.867 ± 0.015	1.62 ± 0.095

Variant	normalized RNA/DNA level with ligand (log10) [1]	normalized RNA/DNA level without ligand (log10) [2]
ACGUUC	1.94 ± 0.039	1.79 ± 0.024
GCGGUU	1.919 ± 0.018	1.72 ± 0.056
CCUACC	1.937 ± 0.0065	1.86 ± 0.049
CCUACU	1.98 ± 0.13	1.96 ± 0.021
CCUACG	1.94 ± 0.073	1.9 ± 0.041
CCGGGG	1.83 ± 0.057	1.34 ± 0.084
CCGGGU	2.04 ± 0.054	1.93 ± 0.15
UCGCUG	1.98 ± 0.069	1.803 ± 0.0034
UCGCUU	1.984 ± 0.0024	1.7 ± 0.035
UCGCUC	1.98 ± 0.049	2.109 ± 0.015
UCGCUA	1.96 ± 0.037	1.725 ± 0.0084
ACGGCA	1.902 ± 0.019	1.702 ± 0.008
ACGGCU	1.88 ± 0.034	1.6 ± 0.016
ACGGCC	1.96 ± 0.02	1.88 ± 0.029
CCUGAC	1.92 ± 0.1	1.83 ± 0.035
CCUGAU	1.909 ± 0.004	1.821 ± 0.013
CCUGAA	1.98 ± 0.078	1.78 ± 0.075
UCGUGU	1.82 ± 0.059	1.33 ± 0.041
CCGUAG	1.82 ± 0.024	1.35 ± 0.099
CCGUAA	1.95 ± 0.098	1.67 ± 0.1
CCGUAC	1.92 ± 0.047	1.66 ± 0.037
CCGUAU	1.91 ± 0.033	1.749 ± 0.0044
ACGACC	1.97 ± 0.051	1.85 ± 0.02
UCUACG	1.9 ± 0.07	1.733 ± 0.011

Variant	normalized RNA/DNA level with ligand (log10) [1]	normalized RNA/DNA level without ligand (log10) [2]
UCUACU	1.97 ± 0.067	1.917 ± 0.014
UCUACC	1.96 ± 0.029	1.913 ± 0.0037
UCUACA	1.94 ± 0.057	1.846 ± 0.017
CCGACA	1.978 ± 0.01	1.79 ± 0.025
ACGCGU	1.95 ± 0.021	1.57 ± 0.096
ACGCGA	1.77 ± 0.072	1.29 ± 0.05
CCGGCG	1.94 ± 0.13	1.72 ± 0.14
CCGGCA	1.97 ± 0.03	1.895 ± 0.0097
CCGGCU	2.04 ± 0.043	1.99 ± 0.024
CCGGCC	1.98 ± 0.029	2 ± 0.051
GCGACU	1.92 ± 0.026	1.755 ± 0.013
CCGGUC	1.96 ± 0.039	1.95 ± 0.029
CCGGUA	1.93 ± 0.034	1.863 ± 0.0044
ACUCAA	1.92 ± 0.073	1.748 ± 0.0042
ACUCAC	1.994 ± 0.0082	1.97 ± 0.013
ACUCAG	1.89 ± 0.04	1.529 ± 0.0011
GCUACA	1.95 ± 0.02	1.85 ± 0.025
GCUACU	1.95 ± 0.059	1.89 ± 0.026
ACGGUG	1.8673 ± 0.00056	1.24 ± 0.062
ACGGUU	1.84 ± 0.024	1.36 ± 0.064
ACGGUC	1.94 ± 0.039	1.87 ± 0.0091
CCUCUA	1.98 ± 0.05	1.926 ± 0.015
CCUCUG	1.96 ± 0.038	1.98 ± 0.035
CCUCUU	2.011 ± 0.018	1.9823 ± 0.00045

Variant	normalized RNA/DNA level with ligand (log10) [1]	normalized RNA/DNA level without ligand (log10) [2]
UCGUCU	1.93 ± 0.049	1.87 ± 0.062
UCGUCG	1.99 ± 0.042	1.85 ± 0.049
UCGUCC	1.98 ± 0.026	1.95 ± 0.0024
UCGUCA	1.986 ± 0.016	1.807 ± 0.0051
UCUGAG	1.927 ± 0.0088	1.58 ± 0.035
UCUGAU	1.94 ± 0.066	1.77 ± 0.096
UCUGAC	1.99 ± 0.031	1.8115 ± 0.00067
CCUAGG	1.86 ± 0.055	1.77 ± 0.046
CCUAGC	1.91 ± 0.08	1.842 ± 0.0069
CCUAGA	1.962 ± 0.016	1.84 ± 0.057
CCUAGU	1.919 ± 0.0097	1.872 ± 0.013
UCGUAC	1.94 ± 0.055	1.77 ± 0.031
UCGUAU	1.92 ± 0.045	1.61 ± 0.024
UCGUAA	1.87 ± 0.04	1.53 ± 0.066
GCUAAA	1.95 ± 0.043	1.77 ± 0.023
UCGCCA	2.016 ± 0.0013	1.81 ± 0.034
UCGCCG	2 ± 0.035	1.841 ± 0.008
UCGCCC	1.981 ± 0.01	1.99 ± 0.069
ACUAGU	1.88 ± 0.052	1.71 ± 0.07
ACUAGC	1.881 ± 0.0075	1.79 ± 0.075
